We go through one molecule from publication doi:10.1101/2022.02.08.479534, “FoxP3 can fold into two distinct dimerization states with divergent functional implications for T cell homeostasis”.

Where a chain is given by its changes, count along the chain named.

One data set has as its target T1, FoxP3ZF-CC (Mus musculus, UniProt Q99JB6 188-284).
T1 sequence: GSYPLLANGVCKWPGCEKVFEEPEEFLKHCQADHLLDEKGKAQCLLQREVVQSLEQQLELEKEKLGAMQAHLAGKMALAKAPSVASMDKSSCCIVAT
Nature of the data set: EMSA; up to 4 uM; barely detectable; EMSA: 0.2 uM DNA, 20 mM Tris pH 7.5, 150 mM NaCl, 1.5 mM MgCl2, 2 mM DTT, 30 min at 4 C; anti-HA bead DNA pull-down: 20 min at room temperature; the EMSA IR-FKHM4g length is taken as 31 bp. Particulars: protein: recombinant; blunt.

Another data set deals with T2, NusA-FoxP4RBR-forkhead (Mus musculus, UniProt Q9DBY0 418-577).
T2 sequence: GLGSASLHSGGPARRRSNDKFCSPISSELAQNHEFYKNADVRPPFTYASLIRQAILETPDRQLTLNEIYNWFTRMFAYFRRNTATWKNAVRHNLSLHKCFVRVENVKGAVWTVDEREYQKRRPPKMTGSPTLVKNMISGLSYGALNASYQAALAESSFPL
Description: EMSA; equal to sFKHM; EMSA: 0.2 uM DNA, 20 mM Tris pH 7.5, 150 mM NaCl, 1.5 mM MgCl2, 2 mM DTT, 30 min at 4 C; anti-HA bead DNA pull-down: 20 min at room temperature; the EMSA IR-FKHM4g length is taken as 31 bp. Particulars: protein: recombinant; tags: His6-NusA; blunt. A general note: A gel shift assay detects complexes by their altered migration in electrophoresis.

The target in the next data set is T3, NusA-FoxP1RBR-forkhead (Mus musculus, UniProt P58462 433-579).
T3 sequence: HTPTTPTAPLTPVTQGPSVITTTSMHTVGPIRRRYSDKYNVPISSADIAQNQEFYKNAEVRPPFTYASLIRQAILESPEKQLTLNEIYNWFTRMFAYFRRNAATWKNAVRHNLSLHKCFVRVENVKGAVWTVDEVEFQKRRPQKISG
The data set is described as above. Particulars: protein: recombinant; tags: His6-NusA; blunt.

The next data set deals with T4, NusA-FoxP2RBR-forkhead (Mus musculus, UniProt P58463 447-588).
T4 sequence: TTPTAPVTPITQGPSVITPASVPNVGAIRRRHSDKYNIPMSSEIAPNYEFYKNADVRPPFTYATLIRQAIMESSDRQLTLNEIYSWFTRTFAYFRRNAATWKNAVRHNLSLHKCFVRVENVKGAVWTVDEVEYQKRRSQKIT
The data set is described as above. Particulars: protein: recombinant; tags: His6-NusA; blunt.

Another data set has as its target T5, FoxP3ΔN (Mus musculus, UniProt Q99JB6 188-423).
T5 sequence: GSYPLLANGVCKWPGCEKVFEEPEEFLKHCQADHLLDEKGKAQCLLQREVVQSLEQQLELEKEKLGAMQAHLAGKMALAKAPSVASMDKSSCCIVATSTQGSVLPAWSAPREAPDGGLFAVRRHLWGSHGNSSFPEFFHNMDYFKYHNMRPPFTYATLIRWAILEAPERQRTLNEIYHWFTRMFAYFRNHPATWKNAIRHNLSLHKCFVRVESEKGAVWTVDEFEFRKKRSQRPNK
Description: EMSA; EMSA: 0.2 uM DNA, 20 mM Tris pH 7.5, 150 mM NaCl, 1.5 mM MgCl2, 2 mM DTT, 30 min at 4 C; anti-HA bead DNA pull-down: 20 min at room temperature; the EMSA IR-FKHM4g length is taken as 31 bp. Particulars: protein: recombinant; tags: His6-NusA cleaved (HRV3C); chain copies: 2; blunt.

The target in data set [1] is T6, NusA-FoxP3RBR-forkhead A372S (Mus musculus, UniProt Q99JB6 284-423, A372S).
T6 sequence: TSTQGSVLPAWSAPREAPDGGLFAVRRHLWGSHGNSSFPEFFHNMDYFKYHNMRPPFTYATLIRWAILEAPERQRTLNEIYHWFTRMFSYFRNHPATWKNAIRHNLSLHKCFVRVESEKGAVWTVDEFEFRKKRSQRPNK
The description is as above. Conditions: protein: recombinant; tags: His6-NusA; blunt.

Another data set deals with T7, NusA-FoxP3RBR-forkhead (Mus musculus, UniProt Q99JB6 284-423).
T7 sequence: T6 sequence with S89A
Described as above. Conditions: protein: recombinant; tags: His6-NusA; blunt.

Data set [2] has as its target T8, NusA-FoxP3RBR-forkhead A372G (Mus musculus, UniProt Q99JB6 284-423, A372G).
T8 sequence: T6 sequence with S89G
The description is as above. Conditions: protein: recombinant; tags: His6-NusA; blunt.

B1: IR-FKHM4g (31bp) (dsDNA)
DNA 1: TTAGGAAAATTTGTTTACTCGAGTAAACAAA
DNA 2: TTTGTTTACTCGAGTAAACAAATTTTCCTAA
As to B1, the binding result with FoxP3ZF-CC was “no binding”; with NusA-FoxP4RBR-forkhead, “binds”; in the data set with NusA-FoxP1RBR-forkhead, “binds”; with NusA-FoxP2RBR-forkhead it was “binds”; with FoxP3ΔN, “binds”; in data set [1] it was “binds”. The binding result (with NusA-FoxP3RBR-forkhead; in data set [2]) was “binds” in each case.
